T1: GST-RecA (E. coli, UniProt P0A7G6 2-353)
T1 sequence: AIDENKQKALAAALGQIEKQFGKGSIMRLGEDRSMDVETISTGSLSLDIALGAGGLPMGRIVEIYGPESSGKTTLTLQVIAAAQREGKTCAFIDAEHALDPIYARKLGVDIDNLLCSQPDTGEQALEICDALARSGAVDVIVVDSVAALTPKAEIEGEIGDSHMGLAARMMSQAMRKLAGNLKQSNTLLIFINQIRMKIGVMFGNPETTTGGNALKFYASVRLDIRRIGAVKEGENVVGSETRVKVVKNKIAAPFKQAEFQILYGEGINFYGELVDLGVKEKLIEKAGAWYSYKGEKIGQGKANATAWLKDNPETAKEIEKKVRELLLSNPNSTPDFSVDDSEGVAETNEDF

B1: His-tag RecA (natural protein, E. coli)
chain: T1 sequence
B2: His-tag AlkB (Escherichia coli alkylation repair protein-B) (enzyme, E. coli)
chain: MLDLFADAEPWQEPLAAGAVILRRFAFNAAEQLIRDINDVASQSPFRQMVTPGGYTMSVAMTNCGHLGWTTHRQGYLYSPIDPQTNKPWPAMPQSFHNLCQRAATAAGYPDFQPDACLINRYAPGAKLSLHQDKDEPDLRAPIVSVSLGLPAIFQFGGLKRNDPLKRLLLEHGDVVVWGGESRLFYHGIQPLKAGFHPLTIDCRYNLTFRQAGKKE

Legend:
SEC = target: the molecule itself; assay: SEC
His-tag RecA = target: B1; assay: SEC
GST-RecA = target: T1, GST-RecA; assay: pull-down

Binder	binding result (SEC)	binding result (His-tag RecA)	binding result (GST-RecA)
B1	binds	–	–
B2	–	binds	binds
